Experimental data: the Human Domainome abundance scans (Beltran et al. 2025)
± gives the uncertainty stated by the source.

B1: Ankyrin-3, residues 4094 to 4171; numbered along this chain, Q12955 (parent)
chain: MAIVADHLGLSWTELARELNFSVDEINQIRVENPNSLISQSFMLLKKWVTRDGKNATTDALTSVLTKINRIDIVTLLE

Variants of: B1
Test: abundance fitness (aPCA) (normalised: wild type 0, dead -1); higher = more abundant; growth selection in yeast, the domain comes from the species named
Settings: Homo sapiens

T66L and L76T are within error of each other in abundance fitness: -0.102 ± 0.05 for the first, -0.197 ± 0.083 for the second.

T66I and I71S are within error of each other in abundance fitness: -0.088 ± 0.07 for the first, -0.048 ± 0.076 for the second.

Compared with A5V, V31P is lower in abundance fitness: -0.484 ± 0.068 for the first, -0.929 ± 0.19 for the second.

First: T50Q
Second: K67G
The abundance fitness of the first is higher: -0.024 ± 0.08 for the first, -0.525 ± 0.1 for the second.

Going from W12I to A2L, the abundance fitness rises from -0.738 ± 0.26 to -0.126 ± 0.067.

First: L15V
Second: N33K
The abundance fitness of the first is higher: -0.039 ± 0.059 for the first, -0.208 ± 0.076 for the second.

I68V and K47E are within error of each other in abundance fitness: -0.284 ± 0.065 for the first, -0.235 ± 0.097 for the second.

Compared with E18G, P34G is higher in abundance fitness: -0.455 ± 0.053 for the first, -0.299 ± 0.066 for the second.

F42W and R30E are within error of each other in abundance fitness: 0.022 ± 0.085 for the first, -0.088 ± 0.16 for the second.

First: I29F
Second: V49Q
The abundance fitness of the first is lower: -0.765 ± 0.23 for the first, 0.07 ± 0.1 for the second.

Compared with L45C, K54H is higher in abundance fitness: -0.444 ± 0.11 for the first, 0.037 ± 0.14 for the second.

Compared with E18A, V64H is higher in abundance fitness: -0.187 ± 0.053 for the first, 0.132 ± 0.12 for the second.

A16Q and W12V are within error of each other in abundance fitness: -0.749 ± 0.17 for the first, -0.753 ± 0.11 for the second.

Compared with A60T, W48C is lower in abundance fitness: -0.283 ± 0.14 for the first, -0.868 ± 0.35 for the second.

Q28D and E14S are within error of each other in abundance fitness: 0.044 ± 0.21 for the first, -0.098 ± 0.057 for the second.

Going from N35E to Q40R, the abundance fitness falls from -0.082 ± 0.091 to -0.407 ± 0.055.

L44A and D72E are within error of each other in abundance fitness: -0.391 ± 0.064 for the first, -0.567 ± 0.17 for the second.

K47Y and I73M are within error of each other in abundance fitness: -0.39 ± 0.15 for the first, -0.503 ± 0.14 for the second.

Compared with D52Y, N27S is higher in abundance fitness: -0.717 ± 0.29 for the first, -0.125 ± 0.06 for the second.

First: T50V
Second: S39L
The abundance fitness of the first is higher: -0.036 ± 0.051 for the first, -0.184 ± 0.072 for the second.

E78S and V31C are within error of each other in abundance fitness: -0.089 ± 0.065 for the first, 0.049 ± 0.19 for the second.

First: V4G
Second: P34E
The abundance fitness of the first is lower: -0.889 ± 0.099 for the first, -0.24 ± 0.099 for the second.

R51L and L77Q are within error of each other in abundance fitness: -0.829 ± 0.096 for the first, -0.805 ± 0.23 for the second.

First: Q28W
Second: T58D
The abundance fitness of the first is lower: -0.768 ± 0.14 for the first, 0.086 ± 0.079 for the second.

First: T75E
Second: E78M
The abundance fitness of the first is higher: 0.079 ± 0.1 for the first, -0.211 ± 0.11 for the second.

Compared with D59C, L77P is lower in abundance fitness: -0.036 ± 0.17 for the first, -0.768 ± 0.14 for the second.

First: D52A
Second: V4E
The abundance fitness of the first is higher: -0.274 ± 0.055 for the first, -1.01 ± 0.18 for the second.

First: R17W
Second: L19C
The abundance fitness of the first is higher: -0.101 ± 0.1 for the first, -0.793 ± 0.23 for the second.

Going from Q40P to V49E, the abundance fitness rises from -0.646 ± 0.096 to 0.087 ± 0.089.

Compared with T50P, N69C is higher in abundance fitness: -1.02 ± 0.18 for the first, -0.549 ± 0.23 for the second.

First: E32V
Second: T62K
The abundance fitness of the first is lower: -0.316 ± 0.045 for the first, 0.097 ± 0.12 for the second.

R30F and Q28V are within error of each other in abundance fitness: -0.628 ± 0.18 for the first, -0.399 ± 0.073 for the second.

M1Y and L10P are within error of each other in abundance fitness: 0.23 ± 0.45 for the first, -0.04 ± 0.086 for the second.

V31M and T50F are within error of each other in abundance fitness: -0.191 ± 0.13 for the first, -0.247 ± 0.17 for the second.

Going from S36Q to L8P, the abundance fitness falls from -0.336 ± 0.11 to -1 ± 0.19.

First: E18I
Second: L10W
The abundance fitness of the first is lower: -0.721 ± 0.22 for the first, -0.101 ± 0.078 for the second.

Compared with L19I, N20W is lower in abundance fitness: -0.333 ± 0.14 for the first, -0.902 ± 0.17 for the second.

T62F and E18Q are within error of each other in abundance fitness: -0.175 ± 0.099 for the first, -0.388 ± 0.18 for the second.

First: K46C
Second: Q28K
The abundance fitness of the first is lower: -0.432 ± 0.079 for the first, -0.134 ± 0.16 for the second.

Compared with I29E, M43C is higher in abundance fitness: -0.174 ± 0.16 for the first, 0.1 ± 0.11 for the second.

E25D and F42V are within error of each other in abundance fitness: 0.03 ± 0.11 for the first, 0.042 ± 0.056 for the second.

T66M and T50M are within error of each other in abundance fitness: -0.054 ± 0.076 for the first, 0.035 ± 0.086 for the second.

First: I29P
Second: N69H
The abundance fitness of the first is lower: -0.808 ± 0.17 for the first, -0.308 ± 0.18 for the second.

First: V4M
Second: L76I
The abundance fitness of the first is lower: -0.963 ± 0.23 for the first, 0.434 ± 0.46 for the second.

S63V and N55W are within error of each other in abundance fitness: -0.061 ± 0.053 for the first, -0.135 ± 0.065 for the second.

S63P and K54A are within error of each other in abundance fitness: -0.137 ± 0.084 for the first, -0.019 ± 0.059 for the second.

Compared with I73V, S63H is higher in abundance fitness: -0.276 ± 0.089 for the first, -0.051 ± 0.1 for the second.

First: L37M
Second: L44T
The abundance fitness of the first is higher: -0.014 ± 0.07 for the first, -0.561 ± 0.087 for the second.

Going from L10R to D52S, the abundance fitness falls from -0.022 ± 0.052 to -0.589 ± 0.085.

L65M and A16V are within error of each other in abundance fitness: -0.651 ± 0.12 for the first, -0.531 ± 0.1 for the second.

Compared with F21P, T62M is higher in abundance fitness: -0.708 ± 0.12 for the first, 0.06 ± 0.15 for the second.

P34D and Q28I are within error of each other in abundance fitness: -0.268 ± 0.1 for the first, -0.479 ± 0.39 for the second.

First: I71Y
Second: I38L
The abundance fitness of the first is higher: 0.082 ± 0.19 for the first, -0.183 ± 0.058 for the second.

Going from K47F to I68F, the abundance fitness falls from -0.138 ± 0.18 to -0.963 ± 0.34.

Compared with L61P, T62E is higher in abundance fitness: -0.921 ± 0.15 for the first, -0.297 ± 0.098 for the second.

K47P and E25R are within error of each other in abundance fitness: -0.956 ± 0.13 for the first, -0.947 ± 0.14 for the second.

Q28G and M1A are within error of each other in abundance fitness: -0.264 ± 0.06 for the first, -0.322 ± 0.1 for the second.

L10N and I3D are within error of each other in abundance fitness: -0.133 ± 0.21 for the first, -0.489 ± 0.16 for the second.

Compared with K46I, E32A is higher in abundance fitness: -0.581 ± 0.17 for the first, -0.039 ± 0.057 for the second.

P34K and R51H are within error of each other in abundance fitness: -0.561 ± 0.18 for the first, -0.848 ± 0.25 for the second.

Compared with L77W, T66R is higher in abundance fitness: -0.518 ± 0.077 for the first, -0.07 ± 0.051 for the second.

Compared with I3L, L44I is lower in abundance fitness: -0.027 ± 0.051 for the first, -0.371 ± 0.18 for the second.

T62H and K54S are within error of each other in abundance fitness: -0.297 ± 0.33 for the first, 0.049 ± 0.058 for the second.

Compared with L61F, N20L is higher in abundance fitness: -0.823 ± 0.23 for the first, -0.191 ± 0.055 for the second.

Going from T62Q to L65Y, the abundance fitness falls from -0.201 ± 0.15 to -0.737 ± 0.23.

Going from S36K to S36L, the abundance fitness falls from -0.626 ± 0.14 to -0.933 ± 0.14.

D24C and V64K are within error of each other in abundance fitness: -0.342 ± 0.098 for the first, -0.333 ± 0.47 for the second.

Compared with L76A, N33T is lower in abundance fitness: 0.08 ± 0.077 for the first, -0.091 ± 0.069 for the second.

A56Y and D59N are within error of each other in abundance fitness: -0.353 ± 0.31 for the first, -0.228 ± 0.15 for the second.

Going from I3C to V64W, the abundance fitness falls from -0.225 ± 0.12 to -0.644 ± 0.26.

First: M43V
Second: S41P
The abundance fitness of the first is higher: -0.074 ± 0.057 for the first, -0.972 ± 0.17 for the second.

First: S41V
Second: T57S
The abundance fitness of the first is lower: -0.851 ± 0.17 for the first, -0.117 ± 0.058 for the second.

S63I and V64G are within error of each other in abundance fitness: -0.287 ± 0.27 for the first, -0.05 ± 0.08 for the second.

Going from E18M to L77H, the abundance fitness falls from -0.339 ± 0.16 to -0.742 ± 0.23.

Compared with Q40S, L37R is lower in abundance fitness: -0.312 ± 0.06 for the first, -0.526 ± 0.084 for the second.

First: S11D
Second: N69A
The abundance fitness of the first is higher: 0.092 ± 0.13 for the first, -0.339 ± 0.074 for the second.

I73G and L8G are within error of each other in abundance fitness: -0.977 ± 0.15 for the first, -0.983 ± 0.14 for the second.

Going from D6Y to E25I, the abundance fitness falls from -0.342 ± 0.12 to -0.754 ± 0.27.

Going from T58M to N35F, the abundance fitness falls from 0.173 ± 0.14 to -0.499 ± 0.24.

Going from N27L to L8V, the abundance fitness falls from -0.383 ± 0.054 to -0.769 ± 0.11.

T58I and N55D are within error of each other in abundance fitness: 0.09 ± 0.22 for the first, 0.066 ± 0.11 for the second.

Compared with I26M, A60V is higher in abundance fitness: -0.544 ± 0.14 for the first, -0.019 ± 0.039 for the second.

Compared with N33C, E18D is lower in abundance fitness: 0.034 ± 0.1 for the first, -0.614 ± 0.3 for the second.

R30Y showed an abundance fitness of -0.061 ± 0.33.
